This passage reports normalised SPOT signal, Boehringer light units (BLU); mean over the file's lines of this peptide results from PMC314469, “Protein Interaction Networks by Proteome Peptide Scanning” (PLoS Biology, 2004).

To fix the notation:
T1: Myo5 SH3 (MYO5_YEAST), Q04439
T1 chain: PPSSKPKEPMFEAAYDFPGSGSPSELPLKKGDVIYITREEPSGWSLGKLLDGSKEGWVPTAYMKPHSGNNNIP

The target of the test is T1, Myo5 SH3 (MYO5_YEAST), Q04439. Kind of test: SPOT array.
With RLFDLVKPKNPKFS [YLR086W 763-776], the normalised SPOT signal, Boehringer light units (BLU); mean over the file's lines of this peptide was 441.

In turn, QLIGFGNPKNPFAL [YIL151C 523-536] displayed a normalised SPOT signal, Boehringer light units (BLU); mean over the file's lines of this peptide of 46.1.

Turning to RLTNFEVPSLPTFH [YIL037C 447-460], the normalised SPOT signal, Boehringer light units (BLU); mean over the file's lines of this peptide came out at 319.

SELYYEGPETPTPS [YPL186C 118-131] had a normalised SPOT signal, Boehringer light units (BLU); mean over the file's lines of this peptide of 50.5.

In the case of SELTFIAPTQPVST [YPL101W 254-267], the normalised SPOT signal, Boehringer light units (BLU); mean over the file's lines of this peptide was determined as 110.

For QPQHLPPPPPPRAQ [YOR329C 661-674], the normalised SPOT signal, Boehringer light units (BLU); mean over the file's lines of this peptide was 76200.

Consider RPPSHSAPYIPRSS [YDR132C 184-197], for which the normalised SPOT signal, Boehringer light units (BLU); mean over the file's lines of this peptide stood at 47400.

Regarding RLSLLRSPKAPDAH [YGL156W 915-928], the normalised SPOT signal, Boehringer light units (BLU); mean over the file's lines of this peptide is 442.

With REFEFIIPVFPVIS [YDL233W 197-210], the normalised SPOT signal, Boehringer light units (BLU); mean over the file's lines of this peptide worked out at 163.

REVDLPIPAQPGPP [YDR236C 34-47] had a normalised SPOT signal, Boehringer light units (BLU); mean over the file's lines of this peptide of 114.

Take RPSKFFHPPIPHIP [YOR235W 5-18]: the normalised SPOT signal, Boehringer light units (BLU); mean over the file's lines of this peptide came to 777.

The molecule SLFPLKTPISPGTS [YOR106W 114-127] had a normalised SPOT signal, Boehringer light units (BLU); mean over the file's lines of this peptide of 239.

As to SETSHHSPSAPFQR [YLL016W 216-229], the normalised SPOT signal, Boehringer light units (BLU); mean over the file's lines of this peptide was 257.

QLVTLISPYDPNFK [YJR119C 479-492] yielded a normalised SPOT signal, Boehringer light units (BLU); mean over the file's lines of this peptide of 178.

In turn, SPFTFLFPFLPTII [YER017C 223-236] yielded a normalised SPOT signal, Boehringer light units (BLU); mean over the file's lines of this peptide of 366.

Consider QPQAYHLPGNPYST [YNL278W 921-934], for which the normalised SPOT signal, Boehringer light units (BLU); mean over the file's lines of this peptide was 187.

Turning to SANNYPFPQQPNGM [YNL124W 356-369], the normalised SPOT signal, Boehringer light units (BLU); mean over the file's lines of this peptide was 79.6.

RFHVFSEPILPSVA [YOR160W 693-706] gave a normalised SPOT signal, Boehringer light units (BLU); mean over the file's lines of this peptide of 158.

The molecule SFRELWQPVDPSRE [YLR301W 124-137] came in with a normalised SPOT signal, Boehringer light units (BLU); mean over the file's lines of this peptide of 97.3.

In the case of RLLALFIPALPFII [YEL065W 193-206], the normalised SPOT signal, Boehringer light units (BLU); mean over the file's lines of this peptide came to 265.

As to SFVGFPKPLLPRNH [YHR082C 909-922], the normalised SPOT signal, Boehringer light units (BLU); mean over the file's lines of this peptide turned out to be 205.

QPTNFQYPPPPFGQ [YNL124W 379-392] registered a normalised SPOT signal, Boehringer light units (BLU); mean over the file's lines of this peptide of 224.

On to RLQKLDDPKSPYQS [YDL205C 162-175], for which the normalised SPOT signal, Boehringer light units (BLU); mean over the file's lines of this peptide is 127.

As to QPAQFMPPQDPAAA [YIL109C 25-38], the normalised SPOT signal, Boehringer light units (BLU); mean over the file's lines of this peptide worked out at 134.

Regarding SPFSLFIPTIPATT [YNL043C 79-92], the normalised SPOT signal, Boehringer light units (BLU); mean over the file's lines of this peptide was determined as 152.

Turning to SFVHLTEPSQPLSD [YOR032C 362-375], the normalised SPOT signal, Boehringer light units (BLU); mean over the file's lines of this peptide is 99.7.

SFTRMPLPTPPIEG [YGL235W 82-95] displayed a normalised SPOT signal, Boehringer light units (BLU); mean over the file's lines of this peptide of 287.

The molecule SFDYLFHPFVPSTI [YPR039W 3-16] gave a normalised SPOT signal, Boehringer light units (BLU); mean over the file's lines of this peptide of 23.1.

The molecule RLNSFAPPPNPYAT [YDL195W 847-860] registered a normalised SPOT signal, Boehringer light units (BLU); mean over the file's lines of this peptide of 274.

Regarding SAENLIQPTAPIRD [YIR029W 44-57], the normalised SPOT signal, Boehringer light units (BLU); mean over the file's lines of this peptide amounted to 56.4.

In turn, SENRLRTPLKPLVN [YGL021W 219-232] yielded a normalised SPOT signal, Boehringer light units (BLU); mean over the file's lines of this peptide of 272.

SFRKLASPSNPNFF [YMR036C 409-422] gave a normalised SPOT signal, Boehringer light units (BLU); mean over the file's lines of this peptide of 209.

SLTSLPPPPPPQFS [YPL014W 217-230] returned a normalised SPOT signal, Boehringer light units (BLU); mean over the file's lines of this peptide of 7260.

With SFTPFNRPSDPSNG [YPL066W 70-83], the normalised SPOT signal, Boehringer light units (BLU); mean over the file's lines of this peptide came to 208.

In the case of REASLDIPYKPIIA [YFL011W 32-45], the normalised SPOT signal, Boehringer light units (BLU); mean over the file's lines of this peptide worked out at 176.

SASTMAAPVHPQQQ [YMR002W 21-34] registered a normalised SPOT signal, Boehringer light units (BLU); mean over the file's lines of this peptide of 164.

SLSALVGPVIPHTI [YMR177W 252-265] gave a normalised SPOT signal, Boehringer light units (BLU); mean over the file's lines of this peptide of 28.4.

The molecule SLAVYNIPLFPDDP [YLL002W 276-289] yielded a normalised SPOT signal, Boehringer light units (BLU); mean over the file's lines of this peptide of 91.7.

In the case of RAAGMDVPIIPGIM [YGL125W 205-218], the normalised SPOT signal, Boehringer light units (BLU); mean over the file's lines of this peptide is 98.2.

In turn, SLDNFYNPLGPEDR [YNR012W 89-102] gave a normalised SPOT signal, Boehringer light units (BLU); mean over the file's lines of this peptide of 143.

For the molecule SENYLVKPTIPGTT [YDL035C 918-931], the normalised SPOT signal, Boehringer light units (BLU); mean over the file's lines of this peptide turned out to be 61.5.

On to SLISMETPEQPHQQ [YAL047C 546-559], for which the normalised SPOT signal, Boehringer light units (BLU); mean over the file's lines of this peptide stood at 147.

In turn, RLWLYAAPKRPKTF [YMR156C 129-142] came in with a normalised SPOT signal, Boehringer light units (BLU); mean over the file's lines of this peptide of 845.

The molecule QLRSLFKPFGPILN [YBR212W 375-388] yielded a normalised SPOT signal, Boehringer light units (BLU); mean over the file's lines of this peptide of 370.

SAFPYVFPLPPWIP [YFL006W 181-194] showed a normalised SPOT signal, Boehringer light units (BLU); mean over the file's lines of this peptide of 13000.

On to REDAHEDPVSPKAG [YOL082W 127-140], for which the normalised SPOT signal, Boehringer light units (BLU); mean over the file's lines of this peptide stood at 145.

SLLIHSLPRKPLLM [YGL104C 357-370] had a normalised SPOT signal, Boehringer light units (BLU); mean over the file's lines of this peptide of 314.

Take SAYYLGLPVTPEDM [YOL057W 181-194]: the normalised SPOT signal, Boehringer light units (BLU); mean over the file's lines of this peptide amounted to 215.

The molecule SLQQFYNPESPIQP [YOR155C 390-403] gave a normalised SPOT signal, Boehringer light units (BLU); mean over the file's lines of this peptide of 131.

Molecule QPAQLQEPQEPLST [YMR148W 78-91] gave a normalised SPOT signal, Boehringer light units (BLU); mean over the file's lines of this peptide of 126.

RPQWLSYPEQPLNS [YBL088C 912-925] yielded a normalised SPOT signal, Boehringer light units (BLU); mean over the file's lines of this peptide of 241.

QFSPMDDPKSPTPM [YCL029C 108-121] showed a normalised SPOT signal, Boehringer light units (BLU); mean over the file's lines of this peptide of 121.

SATGWLKPAVPIQW [YGL065C 374-387] came in with a normalised SPOT signal, Boehringer light units (BLU); mean over the file's lines of this peptide of 94.6.

In turn, SLVKFSSPMTPLLE [YHR072W 246-259] came in with a normalised SPOT signal, Boehringer light units (BLU); mean over the file's lines of this peptide of 249.
